Measurements from publication PMC5930937.

Target: Cav3.1-GFP wild type (human) (UniProt O43497)
UniProt O43497, sequence (O43497 whole entry): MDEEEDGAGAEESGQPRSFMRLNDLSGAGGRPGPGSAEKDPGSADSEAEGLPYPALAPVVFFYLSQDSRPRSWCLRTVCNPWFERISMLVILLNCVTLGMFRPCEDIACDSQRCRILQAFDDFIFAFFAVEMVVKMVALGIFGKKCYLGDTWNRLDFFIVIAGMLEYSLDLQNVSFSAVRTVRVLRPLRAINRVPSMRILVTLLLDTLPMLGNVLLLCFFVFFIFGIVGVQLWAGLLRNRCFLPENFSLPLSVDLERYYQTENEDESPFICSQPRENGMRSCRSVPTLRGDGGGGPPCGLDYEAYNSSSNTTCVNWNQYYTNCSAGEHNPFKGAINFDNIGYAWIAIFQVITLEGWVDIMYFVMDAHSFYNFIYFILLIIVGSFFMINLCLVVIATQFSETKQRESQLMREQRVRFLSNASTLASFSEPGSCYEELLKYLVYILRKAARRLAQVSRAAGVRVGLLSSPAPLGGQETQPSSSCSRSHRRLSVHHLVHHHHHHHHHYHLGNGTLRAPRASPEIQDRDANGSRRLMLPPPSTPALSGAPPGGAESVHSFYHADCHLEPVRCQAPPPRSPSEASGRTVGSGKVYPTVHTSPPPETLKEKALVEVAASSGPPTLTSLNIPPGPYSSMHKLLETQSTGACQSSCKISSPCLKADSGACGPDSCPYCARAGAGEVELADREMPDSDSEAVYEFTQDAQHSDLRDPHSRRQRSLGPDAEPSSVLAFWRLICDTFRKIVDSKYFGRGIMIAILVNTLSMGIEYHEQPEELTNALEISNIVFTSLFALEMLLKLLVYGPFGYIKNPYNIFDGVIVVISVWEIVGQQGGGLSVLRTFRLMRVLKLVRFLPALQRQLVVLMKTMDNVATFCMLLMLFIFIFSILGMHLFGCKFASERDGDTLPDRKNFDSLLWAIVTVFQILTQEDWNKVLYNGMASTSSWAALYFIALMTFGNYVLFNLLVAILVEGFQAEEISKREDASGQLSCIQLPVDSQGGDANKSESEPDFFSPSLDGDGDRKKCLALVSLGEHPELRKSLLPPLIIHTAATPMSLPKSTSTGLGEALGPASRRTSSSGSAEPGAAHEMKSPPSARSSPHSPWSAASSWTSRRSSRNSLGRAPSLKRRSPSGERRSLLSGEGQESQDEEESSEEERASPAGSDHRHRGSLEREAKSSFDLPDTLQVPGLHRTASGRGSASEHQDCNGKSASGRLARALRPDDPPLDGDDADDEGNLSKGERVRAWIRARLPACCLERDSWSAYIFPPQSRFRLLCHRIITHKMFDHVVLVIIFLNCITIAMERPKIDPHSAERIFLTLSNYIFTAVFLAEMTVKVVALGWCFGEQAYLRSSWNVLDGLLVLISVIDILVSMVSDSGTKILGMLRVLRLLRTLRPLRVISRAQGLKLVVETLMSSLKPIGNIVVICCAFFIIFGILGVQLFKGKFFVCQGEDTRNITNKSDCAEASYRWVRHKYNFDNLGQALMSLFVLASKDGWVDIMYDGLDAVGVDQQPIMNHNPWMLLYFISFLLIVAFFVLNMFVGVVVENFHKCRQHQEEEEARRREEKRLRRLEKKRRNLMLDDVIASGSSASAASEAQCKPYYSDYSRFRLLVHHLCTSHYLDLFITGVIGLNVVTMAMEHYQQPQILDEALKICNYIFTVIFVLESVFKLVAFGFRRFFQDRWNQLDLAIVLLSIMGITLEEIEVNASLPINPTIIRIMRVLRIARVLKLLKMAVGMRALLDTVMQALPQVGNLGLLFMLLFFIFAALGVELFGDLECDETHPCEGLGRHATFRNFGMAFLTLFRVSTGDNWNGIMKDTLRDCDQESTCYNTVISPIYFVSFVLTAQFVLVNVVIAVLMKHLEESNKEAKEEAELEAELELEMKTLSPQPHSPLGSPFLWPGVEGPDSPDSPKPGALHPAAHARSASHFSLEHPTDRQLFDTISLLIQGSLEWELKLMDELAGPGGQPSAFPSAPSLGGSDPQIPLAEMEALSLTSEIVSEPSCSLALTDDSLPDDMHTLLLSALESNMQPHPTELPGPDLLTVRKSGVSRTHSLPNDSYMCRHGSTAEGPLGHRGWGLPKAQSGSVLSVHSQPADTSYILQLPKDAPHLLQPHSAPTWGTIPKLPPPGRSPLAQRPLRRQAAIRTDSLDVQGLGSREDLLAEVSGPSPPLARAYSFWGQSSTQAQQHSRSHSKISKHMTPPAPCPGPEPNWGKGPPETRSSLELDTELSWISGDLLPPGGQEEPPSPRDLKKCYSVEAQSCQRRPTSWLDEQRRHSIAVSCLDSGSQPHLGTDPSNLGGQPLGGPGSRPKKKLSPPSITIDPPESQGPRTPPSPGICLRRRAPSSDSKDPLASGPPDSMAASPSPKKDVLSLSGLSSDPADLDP

cell surface expression of Cav3.1 (surface biotinylation, tsA-201 cells) in the presence of the cell permeant Tat-Cav3.1-CT disruptor peptide against a scrambled Tat peptide: 40%
Substance: spectrin αII (SPTAN1), tsA-201 cells, Q13813 1-2472
